According to patent publication US20040146507A1 (Genentech, published 2004):
Positions count from the first letter of the chain named. Read-outs that look alike come from different tables or passages of the source. Values belong to the binder of their own block, whether it stands above or below them.

How the values were obtained:
rhesus CD11a [1] = target: T1, rhesus CD11a (rhesus, UniProt H9Z8N3 26-1169); experiment: rhesus PBL binding
T1 construct: whole, on cells; On rhesus peripheral blood lymphocytes or leukocytes; also called rhCD11a
T1 sequence: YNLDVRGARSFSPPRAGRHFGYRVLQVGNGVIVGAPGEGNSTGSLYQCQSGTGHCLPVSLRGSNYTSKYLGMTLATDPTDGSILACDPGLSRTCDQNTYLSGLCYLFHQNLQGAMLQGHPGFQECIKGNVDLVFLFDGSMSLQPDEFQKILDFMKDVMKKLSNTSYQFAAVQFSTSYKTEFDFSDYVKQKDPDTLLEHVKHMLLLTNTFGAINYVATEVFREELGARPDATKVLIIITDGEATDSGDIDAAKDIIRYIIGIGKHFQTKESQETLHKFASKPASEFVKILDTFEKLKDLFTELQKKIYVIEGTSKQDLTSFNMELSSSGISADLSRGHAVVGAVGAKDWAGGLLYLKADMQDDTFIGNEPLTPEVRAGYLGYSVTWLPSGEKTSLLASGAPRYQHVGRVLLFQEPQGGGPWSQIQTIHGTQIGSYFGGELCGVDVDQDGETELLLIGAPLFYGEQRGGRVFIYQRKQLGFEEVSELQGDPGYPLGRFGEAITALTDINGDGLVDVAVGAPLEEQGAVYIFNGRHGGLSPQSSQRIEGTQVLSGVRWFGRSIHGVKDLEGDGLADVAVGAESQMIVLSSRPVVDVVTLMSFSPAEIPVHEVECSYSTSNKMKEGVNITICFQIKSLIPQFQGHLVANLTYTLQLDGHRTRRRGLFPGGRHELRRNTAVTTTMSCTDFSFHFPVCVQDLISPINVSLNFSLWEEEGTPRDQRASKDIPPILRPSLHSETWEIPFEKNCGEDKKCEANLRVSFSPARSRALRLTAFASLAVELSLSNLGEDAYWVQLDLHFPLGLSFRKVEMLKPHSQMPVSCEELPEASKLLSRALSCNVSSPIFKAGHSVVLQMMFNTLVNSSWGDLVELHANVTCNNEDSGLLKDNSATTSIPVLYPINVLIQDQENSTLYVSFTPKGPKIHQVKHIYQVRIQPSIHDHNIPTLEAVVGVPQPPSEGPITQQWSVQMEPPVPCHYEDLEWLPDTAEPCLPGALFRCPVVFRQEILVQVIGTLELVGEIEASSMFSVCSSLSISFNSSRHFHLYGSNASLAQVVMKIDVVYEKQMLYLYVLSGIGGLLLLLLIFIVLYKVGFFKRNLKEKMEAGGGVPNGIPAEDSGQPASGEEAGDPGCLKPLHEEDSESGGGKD

rhesus CD11a [2] = target: T1, rhesus CD11a; experiment: rhesus PBL binding; remark: listed apart in the source
rhesus CD11a [3] = target: T1, rhesus CD11a; experiment: rhesus PBL binding; remark: listed apart in the source
human CD11a [4] = target: T2, human CD11a (human, UniProt P20701 26-1170); experiment: FACScan, Jurkat cells
T2 construct: whole, on cells; On Jurkat T-cells or human peripheral blood mononuclear cells, as part of LFA-1; also called CD11a on Jurkat cells; alpha subunit of LFA-1
Protocol: (§1) Aliquots of 10⁶ Jurkat T-cells were incubated with serial dilutions of humanized and control antibodies in PBS-0.1% BSA-10 mM sodium azide for 45 min at 4° C. The cells were washed and then incubated in fluorescein-conjugated goat anti-human F(ab′)₂ (Organon Teknika, Westchester, Pa.) for 45 min at 4° C. Cells were washed and analysed on a FACScan (Becton Dickinson, Mountain View, Calif.). 8×10³ cells were acquired by list mode and gated by forward light scatter versus side light scatter, thereby excluding dead cells and debris.

human CD11a [5] = target: T2, human CD11a; experiment: FACScan, Jurkat cells; remark: listed apart in the source
Protocol: as §1
(§2) To determine which CDR residues were involved in binding to human CD11a an alanine-scan (Cunningham et al., Science 244:1081 (1989)) was performed on the CDR residues of HuIgG1. Each mutant was tested for binding to CD11a on Jurkat cells. In the light chain only CDR-L3 contributes to binding.
Target sequence in this assay (P20701 26-1170): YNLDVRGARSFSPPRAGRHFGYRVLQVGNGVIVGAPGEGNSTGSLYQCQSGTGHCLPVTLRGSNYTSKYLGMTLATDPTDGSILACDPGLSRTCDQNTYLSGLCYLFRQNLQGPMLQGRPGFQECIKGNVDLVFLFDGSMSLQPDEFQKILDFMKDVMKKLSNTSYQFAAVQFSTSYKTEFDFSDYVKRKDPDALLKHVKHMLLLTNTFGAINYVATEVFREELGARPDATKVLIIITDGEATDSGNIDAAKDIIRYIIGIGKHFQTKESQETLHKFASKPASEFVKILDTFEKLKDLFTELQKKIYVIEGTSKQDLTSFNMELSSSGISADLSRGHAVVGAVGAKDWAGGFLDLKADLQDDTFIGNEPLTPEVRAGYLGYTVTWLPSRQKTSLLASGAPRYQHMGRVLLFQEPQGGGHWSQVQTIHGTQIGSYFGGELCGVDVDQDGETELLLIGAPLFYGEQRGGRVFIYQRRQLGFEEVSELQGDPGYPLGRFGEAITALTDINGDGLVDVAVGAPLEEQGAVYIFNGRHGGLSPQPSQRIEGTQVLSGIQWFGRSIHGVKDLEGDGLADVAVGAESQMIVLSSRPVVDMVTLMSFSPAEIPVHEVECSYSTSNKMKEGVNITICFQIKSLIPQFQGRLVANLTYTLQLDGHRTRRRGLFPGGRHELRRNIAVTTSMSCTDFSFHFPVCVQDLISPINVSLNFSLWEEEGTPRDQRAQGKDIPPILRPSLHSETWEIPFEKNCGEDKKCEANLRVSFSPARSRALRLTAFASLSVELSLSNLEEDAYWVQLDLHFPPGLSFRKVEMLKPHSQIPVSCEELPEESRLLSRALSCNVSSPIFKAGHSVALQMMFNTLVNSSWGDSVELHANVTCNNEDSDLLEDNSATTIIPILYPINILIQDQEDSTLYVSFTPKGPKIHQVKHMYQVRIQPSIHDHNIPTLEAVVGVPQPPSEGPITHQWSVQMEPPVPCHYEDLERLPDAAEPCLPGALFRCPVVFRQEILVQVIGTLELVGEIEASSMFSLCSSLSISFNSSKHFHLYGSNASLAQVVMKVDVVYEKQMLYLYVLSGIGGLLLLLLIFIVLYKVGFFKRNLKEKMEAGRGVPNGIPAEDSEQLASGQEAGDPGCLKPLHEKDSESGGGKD

rhesus CD11a [6] = target: T1, rhesus CD11a; experiment: rhesus PBL binding; remark: listed apart in the source
human CD11a [7] = target: T2, human CD11a; experiment: FACScan, Jurkat cells; remark: listed apart in the source
Protocol: as §1, §2

rhesus CD11a [8] = target: T1, rhesus CD11a; experiment: rhesus PBL binding; end of range assigned by the printed EC50s
human CD11a [9] = target: T2, human CD11a; experiment: cell-based or functional assay

fold improvement in binding over HuIgG1 (rhesus CD11a [1]): 3 fold | Var.EC50/HuIgG1 EC50 (rhesus CD11a [2]): 0.3 ratio | Mutant EC50/HuIgG1 EC50 (rhesus CD11a [3]): 0.3 ratio | Mutant EC50/HuIgG1 EC50 (human CD11a [4]): 147 ratio | Var.EC50/HuIgG1 EC50 (human CD11a [5]): 147 ratio
B1: HuIgG1 mutant AspH54Ala (antibody, V domains shown)
VH: EVQLVESGGGLVQPGGSLRLSCAASGYSFTGHWMNWVRQAPGKGLEWVGMIHPSASETRYNQKFKDRFTISVDKSKNTLYLQMNSLRAEDTAVYYCARGIYFYGTTYFDYWGQGTLVTVSS
VL: DIQMTQSPSSLSASVGDRVTITCRASKTISKYLAWYQQKPGKAPKLLIYSGSTLQSGVPSRFSGSGSGTDFTLTISSLQPEDFATYYCQQHNEYPLTFGQGTKVEIK
notes: HuIgG1 mutant, human IgG1; Kabat numbering

EC50 (rhesus CD11a [1]): 0.11 nM | Var.EC50/HuIgG1 EC50 (rhesus CD11a [6]): 0.002 ratio | Var.EC50/HuIgG1 EC50 (human CD11a [7]): 24.9 ratio | fold improvement over EC50 of HuIgG1 for rhesus CD11a (rhesus CD11a [8]): 240 to 415 fold | fold weaker than EC50 of HuIgG1 for human CD11a (rhesus CD11a [8]): 3 to 5 fold
B2: HuIgG1 mutant H2C11 (antibody, V domains shown)
VH: B1 VH with H52A, S54A, A55S, E57N
VL: DIQMTQSPSSLSASVGDRVTITCRASKTISKYLAWYQQKPGKAPKLLIYSGSTLQSGVPSRFSGSGSGTDFTLTISSLQPEDFATYYCQQHNEYPLTFGQGTKVEIKR

fold improvement in binding over HuIgG1 (rhesus CD11a [1]): 77 fold | Var.EC50/HuIgG1 EC50 (rhesus CD11a [2]): 0.013 ratio | Var.EC50/HuIgG1 EC50 (rhesus CD11a [6]): 0.013 ratio | Var.EC50/HuIgG1 EC50 (human CD11a [5]): 10.8 ratio | Var.EC50/HuIgG1 EC50 (human CD11a [7]): 10.8 ratio
B3: HuIgG1 mutant H2A1 (antibody, V domains shown)
VH: B1 VH with H52A, S54A, A55D
VL: B1 VL
notes: as for B1

fold improvement in binding over HuIgG1 (rhesus CD11a [1]): 10 fold | Mutant EC50/HuIgG1 EC50 (rhesus CD11a [3]): 0.1 ratio | Mutant EC50/HuIgG1 EC50 (human CD11a [4]): 26 ratio
B4: HuIgG1 mutant AspH54Asn (antibody, V domains shown)
VH: B1 VH with A55N
VL: B1 VL
notes: as for B1

Mutant EC50/HuIgG1 EC50 (rhesus CD11a [3]): 0.9 ratio
B5: HuIgG1 mutant AspH54Ser (antibody, V domains shown)
VH: B1 VH with A55S
VL: B1 VL
notes: HuIgG1 mutant, human IgG1; Kabat numbering; also called AspH54 change to Ser

Mutant EC50/HuIgG1 EC50 (rhesus CD11a [3]): 3.8 ratio
B6: HuIgG1 mutant AspH54Lys (antibody, V domains shown)
VH: B1 VH with A55K
VL: B1 VL
notes: HuIgG1 mutant, human IgG1; Kabat numbering; also called AspH54 change to Lys

Mutant EC50/HuIgG1 EC50 (rhesus CD11a [3]): 4.4 ratio | Mutant EC50/HuIgG1 EC50 (human CD11a [4]): 20 ratio
B7: HuIgG1 mutant AspH54Gln (antibody, V domains shown)
VH: B1 VH with A55Q
VL: B1 VL
notes: HuIgG1 mutant, human IgG1; Kabat numbering; also called AspH54 change to Gln

EC50 (human CD11a [4]): 5.2 ng/mL | EC50 F(ab)/EC50 F(ab)-2 (human CD11a [4]): 0.006 ratio | IC50, blocking of cell adhesion, Jurkat: HuK (human CD11a [9]): 0.1 nM
B8: chimeric MHM24 IgG1 (antibody, V domains shown)
VH: EVQLQQPGAELMRPGASVKLSCKASGYSFTGHWMNWVRQRPGQGLEWIGMIHPSDSETRLNQKFKDKATLTVDKSSSSAYMQLSSPTSEDSAVYYCARGIYFYGTTYFDYWGQGTTLTVSS
VL: DVQITQSPSYLAASPGETISINCRASKTISKYLAWYQEKPGKTNKLLIYSGSTLQSGIPSRFSGSGSGTDFTLTISSLEPEDFAMYYCQQHNEYPLTFGTGTKLELKR
notes: Murine VL and VH fused to human constant light and heavy (IgG1) chains; also called chIgG1; chimeric IgG1
